The values that follow come from publication PMC4757414, “Evidences of Changes in Surface Electrostatic Charge Distribution during Stabilization of HPV16 Virus-Like Particles” (PLoS ONE, 2016).

This series concerns the molecule itself. In words: static light scattering; Debye plot (Zimm equation) of purified HPV16 VLPs in dilute solution, initial (0 h) and final (48 h) states; T = 298 K; 0.5 M NaCl, 50 mM sodium citrate, 1 mM CaCl2, pH 6.

B1: HPV16 L1 protein (assembled into HPV16 virus-like particles) (natural protein)
chain: MSLWLPSEATVYLPPVPVSKVVSTDEYVARTNIYYHAGTSRLLAVGHPYFPIKKPNNNKILVPKVSGLQYRVFRIHLPDPNKFGFPDTSFYNPDTQRLVWACVGVEVGRGQPLGVGISGHPLLNKLDDTENASAYAANAGVDNRECISMDYKQTQLCLIGCKPPIGEHWGKGSPCTNVAVNPGDCPPLELINTVIQDGDMVDTGFGAMDFTTLQANKSEVPLDICTSICKYPDYIKMVSEPYGDSLFFYLRREQMFVRHLFNRAGAVGENVPDDLYIKGSGSTANLASSNYFPTPSGSMVTSDAQIFNKPYWLQRAQGHNNGICWGNQLFVTVVDTTRSTNMSLCAAISTSETTYKNTNFKEYLRHGEEYDLQFIFQLCKITLTADVMTYIHSMNSTILEDWNFGLQPPPGGTLEDTYRFVTSQAIACQKHTPPAPKEDPLKKYTFWEVNLKEKFSADLDQFPLGRKFLLQAGLKAKPKFTLGKRKATPTTSSTSTTAKRKKRKL
notes: major capsid protein L1 (~55 kDa) of human papillomavirus type 16; also called HPV L1; HPV16 VLPs; source: insect cells infected with HPV L1 expressing baculovirus, purified (chromatography and filtration, at least 95% purity); provided by Sino Biological, Inc
For the protein B1, the binding result is recorded as “binds”.
